Measured values published in publication PMC8105722 (The Journal of Experimental Medicine, 2021).

Target: the molecule itself
Assay: crystal structure

B1: Rv0812 (Mycobacterium tuberculosis bifunctional aminodeoxychorismate lyase / D-amino acid transaminase) (enzyme)
chain: MVVTLDGEILQPGMPLLHADDLAAVRGDGVFETLLVRDGRACLVEAHLQRLTQSARLMDLPEPDLPRWRRAVEVATQRWVASTADEGALRLIYSRGREGGSAPTAYVMVSPVPARVIGARRDGVSAITLDRGLPADGGDAMPWLIASAKTLSYAVNMAVLRHAARQGAGDVIFVSTDGYVLEGPRSTVVIATDGDQGGGNPCLLTPPPWYPILRGTTQQALFEVARAKGYDCDYRALRVADLFDSQGIWLVSSMTLAARVHTLDGRRLPRTPIAEVFAELVDAAIVSDR
notes: also called Mtb Rv0812; WT-Rv0812
stoichiometry N: 2
